Measurements reported in patent US20240279357A1 (THERINI BIO, published 2024).

T1: P2 peptide comprising SEQ ID NO: 31 (human fibrin γ377-395) (human)
T1 construct: Bought (CPC Scientific 920712); also called human P2 peptide
T1 peptide: YSMKKTTMKIIPFNRLTIG

T2: human Fibrin (human fibrinogen clotted on the plate with thrombin and CaCl2) (human, UniProt P02671 36-629; P02675 45-491; P02679 27-437)
T2 construct: Made in the ELISA wells from the human fibrinogen by thrombin and CaCl2, 1 hour at 37 C, then dried
T2 sequence (looked up) 1: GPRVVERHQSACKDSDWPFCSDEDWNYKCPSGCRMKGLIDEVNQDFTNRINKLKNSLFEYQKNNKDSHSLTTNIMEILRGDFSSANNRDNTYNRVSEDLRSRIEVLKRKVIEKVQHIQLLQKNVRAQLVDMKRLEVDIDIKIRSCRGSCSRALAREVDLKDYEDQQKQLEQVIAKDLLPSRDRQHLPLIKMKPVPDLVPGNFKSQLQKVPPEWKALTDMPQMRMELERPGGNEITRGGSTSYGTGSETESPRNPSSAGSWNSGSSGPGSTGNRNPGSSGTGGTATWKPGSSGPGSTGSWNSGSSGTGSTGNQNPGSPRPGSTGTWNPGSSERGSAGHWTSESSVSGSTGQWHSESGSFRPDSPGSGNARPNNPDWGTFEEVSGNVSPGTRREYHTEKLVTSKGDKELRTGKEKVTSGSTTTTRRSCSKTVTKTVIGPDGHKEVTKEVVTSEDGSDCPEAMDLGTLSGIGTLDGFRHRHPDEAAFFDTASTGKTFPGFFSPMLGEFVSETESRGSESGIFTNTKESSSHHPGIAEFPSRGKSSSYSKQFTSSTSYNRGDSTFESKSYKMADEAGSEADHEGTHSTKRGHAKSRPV
T2 sequence (looked up) 2: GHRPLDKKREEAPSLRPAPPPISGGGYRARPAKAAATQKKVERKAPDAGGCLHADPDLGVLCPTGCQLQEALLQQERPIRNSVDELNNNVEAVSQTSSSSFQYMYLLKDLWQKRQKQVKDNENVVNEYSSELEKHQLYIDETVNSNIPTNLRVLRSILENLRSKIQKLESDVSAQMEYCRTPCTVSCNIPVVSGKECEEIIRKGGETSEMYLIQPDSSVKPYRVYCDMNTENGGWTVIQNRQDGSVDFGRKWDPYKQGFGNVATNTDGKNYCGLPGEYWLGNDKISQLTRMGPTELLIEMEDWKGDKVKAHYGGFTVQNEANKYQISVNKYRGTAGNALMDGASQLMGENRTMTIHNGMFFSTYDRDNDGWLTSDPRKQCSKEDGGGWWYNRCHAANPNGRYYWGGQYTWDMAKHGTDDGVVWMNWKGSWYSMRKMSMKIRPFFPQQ
T2 sequence (looked up) 3: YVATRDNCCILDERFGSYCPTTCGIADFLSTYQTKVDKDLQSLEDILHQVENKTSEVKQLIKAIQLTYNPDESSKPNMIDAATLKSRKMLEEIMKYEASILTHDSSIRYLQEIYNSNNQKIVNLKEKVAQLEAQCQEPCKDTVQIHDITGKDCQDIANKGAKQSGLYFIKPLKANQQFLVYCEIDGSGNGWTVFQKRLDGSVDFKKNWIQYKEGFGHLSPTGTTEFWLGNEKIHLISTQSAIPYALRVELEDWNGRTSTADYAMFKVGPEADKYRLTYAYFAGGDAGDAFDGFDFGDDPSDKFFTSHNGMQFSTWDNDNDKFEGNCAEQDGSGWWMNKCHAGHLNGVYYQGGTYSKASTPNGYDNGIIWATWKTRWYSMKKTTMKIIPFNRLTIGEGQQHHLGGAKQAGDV


What was measured:
[1] = target: T1, P2 peptide comprising SEQ ID NO: 31 …; experiment: SPR (Biacore) multicycle, steady state fit; purified IgG captured, P2 peptide analyte
Method: Multicycle kinetics analysis of the variants were also performed to determine antibody affinity. […] At the start of each cycle, antibodies were loaded onto Fc2, Fc3 and Fc4 of the anti-human capture chip (GE Healthcare, Little Chalfont, UK). IgGs were captured at a flow rate of 10 μl/min to give an immobilization level (RL) of ˜1674 RU, the theoretical value to obtain a RMax of ˜50 RU. The surface was then allowed to stabilize. Kinetic data was obtained with P2 peptide as analyte using a flow rate of […] to minimize any potential mass transfer effects. Multiple repeats of a blank and a repeat of three concentrations of the analyte were programmed into the kinetic run in order to check the stability of both the surface and analyte over the kinetic cycles. […] The association phase of the peptide was monitored for 20 seconds and the dissociation phase was monitored for 25 seconds. Regeneration of the anti-human capture surface was conducted using one injection of 3.8 M magnesium chloride. The signal from the reference channel Fc1 was subtracted from that of Fc2, Fc3 and Fc4 to correct for differences in non-specific binding to a reference surface, and the data was then analyzed using steady state analysis due to the low affinity interaction to P2 peptide.

[2] = target: T2, human Fibrin (human fibrinogen clotted …); experiment: ELISA on human fibrin formed on the plate
Method: (§1) The humanized antibodies affinity for fibrinogen, fibrin and P2 peptide were assessed by Enzyme-linked immunosorbent assays (ELISA)s (FIGS. 7-16). ELISAs for fibrinogen binding were performed using plasminogen-depleted human Fibrinogen (EMD/Calbiochem). […] IgG1-depleted Fibrinogen (FGN) in 20 mM HEPES/Saline buffer was added to each well of half of a 96-well Nunc Maxisorp™ ELISA plate. The ELISAs for fibrin binding were prepared by adding 50 mL of 20 mM HEPES/Saline buffer containing 14 mM CaCl₂, and 2 units thrombin to each well of the second half of the Nunc Maxisorp™ ELISA plate. 50 mL of 20 mg fibrinogen in 20 mM HEPES/Saline buffer were then added to a total volume of 100 mL. Plates were placed in a 37° C. incubator for 1 hour to allow fibrinogen to clot into fibrin and subsequently placed overnight into a plate dryer at 37° C. overnight. The ELISAs for P2 peptide were prepared by addition of […] of 30 mM P2 peptide in 20 mM HEPES/Saline buffer to each well of a 96-well Nunc Maxisorp™ ELISA plate. Plates were transferred to the plate dryer and dried overnight at 37° C. All ELISAs were preformed using Nunc MaxiSorp 96-well ELISA plates. Blocking was performed using 100 mL 5% BSA in DPBS are incubated at RT for 1 hour. Plates were washed 5× in DPBS containing 0.05% Tween-20 (EL406 was used for the addition of wash buffer only). 50 mL of primary antibodies was diluted in 0.5% BSA in DPBS, and the primary antibodies were added to the plates and incubated for 2 hours at 37° C. Plates were washed 5× in DPBS/Tween. 100 mL secondary antibodies were diluted in 0.5% BSA in DPBS. The secondary antibodies were then added to the plates and incubated for 1 hour at RT. Afterwards, plates were washed 5× in DPBS/Tween. 100 mL of TMB/E substrate solution was added, and the reaction was stopped after 5 minutes with 1N HCl.

[3] = target: T1, P2 peptide comprising SEQ ID NO: 31 …; experiment: ELISA on coated P2 peptide
Method: as §1

| Binder | Kd [1] | Relative KD [1] | EC50 [2] | EC50 [3] |
| --- | --- | --- | --- | --- |
| humanized VH5/Vκ2 antibody (antibody, IgG1, V domains shown, IgG1; also called VH5/VK2; VH5Vk2) VH: QVQLVQSGAEVKKPGSSVKVSCKASGYTFTSYWIHWVRQAPGQGLEWIGLIDPSDSYTNYNQKFRGRVTITRDTSTSTAYMELSSLRSEDTAVYYCASSDPTGCWGQGTTVTVSS VL: DIVMTQAAFSNPVTPGTPASISCRSSKSLLHSSGITYLSWYLQKPGQSPQLLIYQMSNLASGVPDRFSSSGSGTDFTLKISRVEAEDVGVYYCAQNLELPLTFGQGTKLEIK | 122000 nM | 1.88 fold against VH0/VK0 | ~525 nM | ~78.1 nM |
| humanized VH6/Vκ2 antibody (antibody, IgG1, V domains shown, Expressed as IgG1; also called VH6/VK2; VH6Vk2) VH: QVQLVQSGAEVKKPGSSVKVSCKASGYTFTSYWIHWVRQAPGQGLEWIGLIDPSDSYTNYNQKFQGRVTITRDTSTSTAYMELSSLRSEDTAVYYCASSDPTGCWGQGTTVTVSS VL: DIVMTQAAFSNPVTPGTPASISCRSSKSLLHSSGITYLSWYLQKPGQSPQLLIYQMSNLASGVPDRFSSSGSGTDFTLKISRVEAEDVGVYYCAQNLELPLTFGQGTKLEIK | 132000 nM | 2.04 fold against VH0/VK0 | ~488 nM | ~110 nM |

Other lines, results leading:

| Kd [1] | Relative KD [1] | EC50 [2] | EC50 [3] | Binder |
| --- | --- | --- | --- | --- |
| 79200 nM | 1.22 fold against VH0/VK0 | ~762 nM | ~85.1 nM | humanized VH4/Vκ2 antibody (antibody, IgG1, V domains shown, IgG1; also called VH4/VK2; VH4Vk2) VH: QVQLVQSGAEVKKPGSSVKVSCKASGYTFTSYWIHWVRQAPGQGLEWIGLIDPSDSYTNYNQKFRGRVTITVDTSTSTAYMELSSLRSEDTAVYYCASSDPTGCWGQGTTVTVSS VL: DIVMTQAAFSNPVTPGTPASISCRSSKSLLHSSGITYLSWYLQKPGQSPQLLIYQMSNLASGVPDRFSSSGSGTDFTLKISRVEAEDVGVYYCAQNLELPLTFGQGTKLEIK |
| 86200 nM | 1.33 fold against VH0/VK0 | ~219 nM | ~81.3 nM | humanized VH4/Vκ1 antibody (antibody, IgG1, V domains shown, Expressed as IgG1; also called VH4/VK1; VH4Vk1) VH: QVQLVQSGAEVKKPGSSVKVSCKASGYTFTSYWIHWVRQAPGQGLEWIGLIDPSDSYTNYNQKFRGRVTITVDTSTSTAYMELSSLRSEDTAVYYCASSDPTGCWGQGTTVTVSS VL: DIVMTQAAFSNPITPGTPASISCRSSKSLLHSSGITYLSWYLQKPGQSPQLLIYQMSNLASGVPDRFSSSGSGTDFTLRISRVEAEDVGVYYCAQNLELPLTFGQGTKLEIK |
